Measurements reported in patent US20120288474A1, “COMPOSITION FOR TREATMENT OF CXCL8-MEDIATED LUNG INFLAMMATION” (PROTAFFIN BIOTECHNOLOGIE AG, priority 2009, published 2012).

Key:
Type in all cases: in vivo
[1] = system: male Balb/c mice aerosolized with LPS; experiment: LPS aerosol acute lung inflammation, s.c. or i.v. treatment (Example 2)
Procedure: A second study was performed using a slightly different model, which imply a different mouse strain and gender (male Balb/c instead of C57BL/6) a different LPS strain and serotype (Salmonella enterica instead of E. Coli) and a different LPS administration (aerosol—3.5 mg/7 mL over 30 min—instead of intranasal). PA401 doses of 4, 40 and 400 μg/kg were administered either by s.c. or i.v. route at t=−5 and t=+3 h from LPS exposure. BAL total and differential cell count were evaluated at t=8 h, a later time point compared to the previous study.
Saline aerosolized mice and mice receiving an intra tracheal administration of Dexamethasone (20 μg/20 ∥l/mouse at t=−1 h) were used as control.

[2] = system: C57BL/6J female mice exposed to cigarette smoke; experiment: Acute model of cigarette smoke induced lung inflammation, four-day exposure (Example 3)
Procedure: Lung inflammation was induced in C57BL/6J female mice (a susceptible strain) by exposure to cigarette smoke of 4 to 6 cigarette over a four-day period. Dose response activity of subcutaneous PA401 treatment at the doses of 4, 40 and 400 μg/kg administered at t=+30 min and t=+6 h from smoke exposure, on cell infiltrates on bronchoalveolar lavages was evaluated 24 h after last cigarette smoke exposure. Air exposed, and Roflumilast (5 mg/kg oral) treated animals serve as controls.

[3] = system: C57BL/6J female mice exposed to cigarette smoke; experiment: Sub-chronic model of cigarette smoke induced lung inflammation, eleven-day exposure, dose frequency (Example 4)
Procedure: In this study lung inflammation was induced in C57BL/6J female mice by exposure to cigarette smoke of 4 to 6 cigarettes over an eleven-day period. Dose frequency activity of subcutaneous PA401 treatment at the optimal dose of 400 μg/kg, based on the study in example 3, administered at t=+30 min and t=+6 h from smoke exposure (twice a day: b.i.d.), once daily at +3 h (q.d) and every other day (q.o.d) at +3 h, on cell infiltrates on bronchoalveolar lavages was evaluated 24 h after last cigarette smoke exposure. Air exposed, and Roflumilast (5 mg/kg oral) treated animals serve as controls.

[4] = system: C57BL/6J female mice exposed to cigarette smoke; experiment: Sub-chronic model of cigarette smoke induced lung inflammation, eleven-day exposure, 400 vs 40 μg/kg (Example 5)
Procedure: In this study lung inflammation was induced in C57BL/6J female mice by exposure to cigarette smoke of 4 to 6 cigarettes over an eleven-day period. PA401 at the dose of 400 μg/kg daily subcutaneous was compared to the dose of 40 μg/kg daily subcutaneous. Treatment was performed at t+3 h and effects on cell infiltrates on bronchoalveolar lavages were evaluated 24 h after last cigarette smoke exposure. Air exposed, Roflumilast (5 mg/kg oral) treated animals as well as animals treated with the CXCR2 antagonist SCH527123 (10 mg/kg twice a day oral-total daily dose 20 mg/kg) serve as controls.

[5] = system: male Balb/c mice exposed to LPS aerosol; experiment: LPS aerosol lung inflammation, intra-tracheal local delivery to the lung (Example 6)
Procedure: In this experiment lung inflammation was induced by the delivery of LPS by aerosol (Salmonella enterica, 3.5 mg/7 mL over 30 min) in male Balb/c mice. PA401 was administered intra-tracheally (i.t.) using a MicroSprayer (FJM-250 syringe; PennCentury), a device that allows delivery of a plume of aerosol (mass median diameter 16-22 μm) directly into the lungs. PA401 i.t. administration was performed at the doses of 100, 40, 10 and 4 μg/kg either 1 h before LPS exposure, or 1 h after the end of LPS exposure. Bronchoalveolar lavage (BAL) was performed 8 h post LPS exposure and total cell and neutrophil numbers were measured. Dexamethasone 20 μg/20 μl mouse i.t. was used as reference compound.

[6] = system: C57BL/6J female mice intranasal instilled with LPS; experiment: LPS-induced acute lung inflammation, intranasal LPS instillation (Example 1)
Procedure: To assess potential of PA401 as anti-inflammatory in models of acute lung neutrophilia, a dose-response study with subcutaneous administration of PA401 at doses of 4, 40, 200 and 400 μg/Kg in C57BL/6J female mice intranasal instilled with LPS (0.3 μg/mouse, serotype […]) was performed. Sham instilled (saline) and Dexamethasone 3 mg/kg s.c. (administered at t=−1 h before LPS instillation) treated animals were used as controls. Bronchoalveolar lavage (BAL) was performed 4 h post LPS instillation and total cell count on BAL samples, as well as differential cell count on BAL cytospin were measured.

[7] = 400 μg/kg s.c., all treatment frequencies (b.i.d., q.d., q.o.d.)
[8] = 400 μg/kg s.c., b.i.d. and q.d.
[9] = i.t. 100, 40, 10 and 4 μg/kg, 1 h before or 1 h after LPS, BAL 8 h post LPS
[10] = s.c. 4-400 μg/Kg, BAL cytospin 4 h post LPS

B1: PA401: del6F17KF21KE70KN71K IL-8 mutant; modified IL-8 with increased GAG binding affinity and down-regulated GPCR activity (protein, UniProt P10145 23-99, looked up, variant del1-6 F17K F21K E70K N71K)
Interleukin-8: AVLPRCQCIKTYSKPKHPKKIKELRVIESGPHCANTEIIVKLSDGRELCLDPKENWVQRVVEKFLKRAKKS
- number of total cells in the BAL ([1]; 4, 40 and 400 μg/kg s.c. or i.v. at t=-5 and t=+3 h from LPS, BAL at t=8 h): highly significant reduction
- neutrophils count in the BAL ([1]; 4, 40 and 400 μg/kg s.c. or i.v., BAL at t=8 h): reduction
- inhibitory effect compared with intra tracheal dexamethasone ([1]; PA401 i.v., Dexamethasone 20 μg/mouse i.t. at t=-1 h): reaching the same inhibitory effects of intra tracheal administration of dexamethasone
- activity by route of administration (intravenous vs subcutaneous) ([1]; i.v. vs s.c., BAL at t=8 h): more significant when administered by intravenous than by subcutaneous route
- cell subtypes (neutrophil, macrophage, epithelial cells, lymphocyte) in BAL at the other two doses ([2]; 4 and 40 μg/kg s.c.): Significant effect on most of these cell subtypes
- total cell infiltrates in BAL ([2]; 40 and 400 μg/kg s.c.): Highly significant effect
- inhibitory effect compared with Roflumilast 5 mg/kg ([2]; PA401 400 μg/kg s.c., Roflumilast 5 mg/kg oral): comparable of that obtained with Roflumilast 5 mg/kg
- epithelial cells numbers in BAL ([2]; highest dose (400 μg/kg s.c.)): significantly reduced
- lymphocyte numbers in BAL ([2]; highest dose (400 μg/kg s.c.)): significantly reduced
- macrophage numbers in BAL ([2]; highest dose (400 μg/kg s.c.)): significantly reduced
- neutrophil numbers in BAL ([2]; highest dose (400 μg/kg s.c.)): significantly reduced
- cigarette smoke induced increase in total cell number recovered in the BAL ([2]; s.c. 4, 40 and 400 μg/kg at +30 min and +6 h, BAL 24 h after last exposure): dose dependently inhibited
- total cell infiltrates in BAL ([3]; 400 μg/kg s.c. twice a day, daily and every other day, 11-day smoke): Significant effect
- epithelial cells numbers in BAL [3, 7]: significantly reduced
- neutrophil numbers in BAL [3, 7]: significantly reduced
- lymphocyte numbers in BAL [3, 8]: significant reduction
- macrophage numbers in BAL [3, 8]: significant reduction
- activity on mixed cell infiltration, twice a day vs once a day ([3]; 400 μg/kg subcutaneously, 11-day repeated exposure): comparable activity
- inhibitory effect compared with Roflumilast 5 mg/kg ([3]; PA401 400 μg/kg s.c. twice and once a day, Roflumilast 5 mg/kg oral): comparable of that obtained with Roflumilast 5 mg/kg
- epithelial cells numbers in BAL ([4]; 400 and 40 μg/kg daily s.c.): significant reduction
- lymphocyte numbers in BAL ([4]; 400 and 40 μg/kg daily s.c.): significant reduction
- macrophage numbers in BAL ([4]; 400 and 40 μg/kg daily s.c.): significant reduction
- neutrophil numbers in BAL ([4]; 400 and 40 μg/kg daily s.c.): significant reduction
- total cell infiltrates in BAL ([4]; 400 and 40 μg/kg daily s.c., 11-day smoke): Significant effect
- inhibitory effect compared with Roflumilast and CXCR2 antagonist SCH527123 ([4]; PA401 400 μg/kg daily s.c., Roflumilast 5 mg/kg oral, SCH527123 10 mg/kg twice a day oral): comparable of that obtained with Roflumilast 5 mg/kg and the CXCR2 antagonist SCH527123
- neutrophil number in BAL [5, 9]: neutrophil number reduction
- total cells in BAL [5, 9]: significant dose dependent reduction
- activity on BAL cell counts at single doses ([5]; i.t. doses of 100, 40 and 10 μg/kg): significantly active
- improved activity of therapeutic treatment (t=+1 h) compared to prophylactic treatment (-1 h) ([5]; i.t., BAL 8 h post LPS): about 10%
- inhibition of cell infiltration in the BAL compared with Dexamethasone 3 mg/kg ([6]; PA401 200 and 400 μg/kg s.c., Dexamethasone 3 mg/kg s.c.): comparable to that obtained with the treatment with a high dose of Dexamethasone
- total number of cells infiltrated in lung as assessed in the BAL fluid ([6]; s.c. 4, 40, 200 and 400 μg/Kg, BAL 4 h post LPS instillation): dose-dependent reduction
- number of lymphocytes in BAL [6, 10]: significant reduction
- number of neutrophils in BAL [6, 10]: significant reduction
- lowest dose with significant effect on neutrophils and lymphocytes ([6]; s.c., BAL 4 h post LPS): 4 µg/kg
